{
  "source": "patent US6638503",
  "key": {"[1]": {"system": "casein"}, "[2]": {"system": "Hemoglobin"}, "[3]": {"system": "Fibrin"}, "[4]": {"system": "plasminogen", "sequence (chain, as listed by the source)": "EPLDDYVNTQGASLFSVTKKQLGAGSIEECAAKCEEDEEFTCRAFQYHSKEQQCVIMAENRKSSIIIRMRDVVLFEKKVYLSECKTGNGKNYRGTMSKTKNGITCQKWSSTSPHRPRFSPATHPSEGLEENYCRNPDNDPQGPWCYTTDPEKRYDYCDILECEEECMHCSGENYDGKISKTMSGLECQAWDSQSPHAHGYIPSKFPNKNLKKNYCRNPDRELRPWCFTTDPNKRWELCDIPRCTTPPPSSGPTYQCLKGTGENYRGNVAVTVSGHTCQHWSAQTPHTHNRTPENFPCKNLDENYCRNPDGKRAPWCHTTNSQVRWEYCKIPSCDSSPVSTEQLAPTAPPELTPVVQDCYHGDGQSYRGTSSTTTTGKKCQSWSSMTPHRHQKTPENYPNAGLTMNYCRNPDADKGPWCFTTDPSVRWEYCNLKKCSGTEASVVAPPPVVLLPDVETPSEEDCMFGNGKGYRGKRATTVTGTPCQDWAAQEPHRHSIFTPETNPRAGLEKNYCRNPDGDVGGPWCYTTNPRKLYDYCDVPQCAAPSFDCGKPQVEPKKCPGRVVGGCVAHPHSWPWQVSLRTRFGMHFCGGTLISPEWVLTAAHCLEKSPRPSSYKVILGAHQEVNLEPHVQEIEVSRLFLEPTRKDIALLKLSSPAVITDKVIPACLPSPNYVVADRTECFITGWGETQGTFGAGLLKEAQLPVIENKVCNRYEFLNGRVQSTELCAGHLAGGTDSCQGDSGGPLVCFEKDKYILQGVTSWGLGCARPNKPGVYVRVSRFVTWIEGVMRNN"}, "[5]": {"system": "Thrombin"}, "[6]": {"molecular_target": "Human fibrinogen (UniProt P02671)", "sequence (P02671 20-629, chain 1 of 3)": "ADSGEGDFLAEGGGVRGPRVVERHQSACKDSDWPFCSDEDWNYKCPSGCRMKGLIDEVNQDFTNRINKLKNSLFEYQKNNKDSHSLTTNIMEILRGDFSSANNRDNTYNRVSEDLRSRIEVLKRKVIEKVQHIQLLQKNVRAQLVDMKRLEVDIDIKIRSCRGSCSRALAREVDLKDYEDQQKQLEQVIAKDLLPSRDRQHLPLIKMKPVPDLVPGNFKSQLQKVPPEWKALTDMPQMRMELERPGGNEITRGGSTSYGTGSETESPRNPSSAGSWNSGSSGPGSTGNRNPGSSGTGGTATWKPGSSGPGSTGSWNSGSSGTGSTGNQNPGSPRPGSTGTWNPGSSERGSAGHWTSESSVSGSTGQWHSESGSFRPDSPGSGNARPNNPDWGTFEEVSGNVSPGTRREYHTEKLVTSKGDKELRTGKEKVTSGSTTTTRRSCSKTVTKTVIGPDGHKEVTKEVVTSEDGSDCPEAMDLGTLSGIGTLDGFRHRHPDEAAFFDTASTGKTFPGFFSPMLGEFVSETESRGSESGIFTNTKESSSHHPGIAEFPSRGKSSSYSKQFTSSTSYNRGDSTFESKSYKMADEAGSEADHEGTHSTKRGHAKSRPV", "sequence (chain, as listed by the source, chain 2 of 3)": "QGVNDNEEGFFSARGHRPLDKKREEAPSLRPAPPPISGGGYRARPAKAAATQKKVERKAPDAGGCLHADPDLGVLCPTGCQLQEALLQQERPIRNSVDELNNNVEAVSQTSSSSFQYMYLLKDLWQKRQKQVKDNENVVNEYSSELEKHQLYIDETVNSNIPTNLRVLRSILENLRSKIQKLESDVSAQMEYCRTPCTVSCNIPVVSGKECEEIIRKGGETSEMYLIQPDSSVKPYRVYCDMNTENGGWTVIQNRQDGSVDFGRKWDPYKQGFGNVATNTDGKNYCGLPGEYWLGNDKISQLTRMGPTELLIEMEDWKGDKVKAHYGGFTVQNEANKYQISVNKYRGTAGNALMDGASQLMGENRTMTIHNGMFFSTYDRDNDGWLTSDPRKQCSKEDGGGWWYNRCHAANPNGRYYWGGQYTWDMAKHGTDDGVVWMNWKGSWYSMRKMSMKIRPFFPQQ", "sequence (chain, as listed by the source, chain 3 of 3)": "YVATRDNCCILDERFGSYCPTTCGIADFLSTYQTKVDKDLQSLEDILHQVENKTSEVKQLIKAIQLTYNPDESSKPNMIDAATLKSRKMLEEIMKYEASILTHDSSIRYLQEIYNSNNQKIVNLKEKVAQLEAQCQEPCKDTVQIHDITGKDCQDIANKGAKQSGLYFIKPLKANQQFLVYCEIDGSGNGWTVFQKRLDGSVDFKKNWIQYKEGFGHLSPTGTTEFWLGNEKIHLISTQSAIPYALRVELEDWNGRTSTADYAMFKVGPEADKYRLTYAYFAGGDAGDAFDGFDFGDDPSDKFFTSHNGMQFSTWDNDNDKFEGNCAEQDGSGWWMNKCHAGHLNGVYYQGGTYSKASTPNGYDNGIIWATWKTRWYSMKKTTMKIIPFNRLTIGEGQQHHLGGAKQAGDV"}, "[7]": {"system": "bovine serum albumin, haemoglobin, fibrinogen and thrombin"}, "[8]": {"molecular_target": "Bovine serum albumin (UniProt P02769)", "sequence (P02769 25-607)": "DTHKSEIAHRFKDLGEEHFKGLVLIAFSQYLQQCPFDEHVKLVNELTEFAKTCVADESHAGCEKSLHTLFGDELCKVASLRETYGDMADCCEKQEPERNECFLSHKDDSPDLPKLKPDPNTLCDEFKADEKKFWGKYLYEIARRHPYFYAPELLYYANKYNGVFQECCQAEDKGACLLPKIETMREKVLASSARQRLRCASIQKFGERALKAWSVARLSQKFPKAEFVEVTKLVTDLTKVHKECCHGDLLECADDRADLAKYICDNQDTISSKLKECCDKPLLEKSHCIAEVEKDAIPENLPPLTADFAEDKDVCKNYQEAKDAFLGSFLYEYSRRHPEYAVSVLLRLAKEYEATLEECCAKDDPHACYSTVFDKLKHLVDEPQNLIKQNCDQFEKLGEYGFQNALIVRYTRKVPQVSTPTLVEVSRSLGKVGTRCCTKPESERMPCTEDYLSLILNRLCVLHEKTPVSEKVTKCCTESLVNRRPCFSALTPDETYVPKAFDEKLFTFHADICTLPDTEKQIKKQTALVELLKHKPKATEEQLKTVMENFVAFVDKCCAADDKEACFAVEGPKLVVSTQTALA"}},
  "data": [
    {"substance": "actinokinase (fibrinolytic enzyme from Streptomyces megasporus SD5)", "values": [
      {"measurement": "caseinolytic activity", "setting": "[1]", "result": "1.0×10^2 µmole/tyrosine mg^-1 protein min^-1"},
      {"measurement": "Relative activity (%)", "setting": "[2]", "result": 8, "unit": "%"},
      {"measurement": "Relative activity (%)", "setting": "[3]", "result": 100, "unit": "%"},
      {"measurement": "fibrinolytic activity", "setting": "[3]", "result": "1.0×10^3 µmole/ tyrosine mg^-1 protein min^-1"},
      {"measurement": "amidolytic activity with and without added plasminogen", "setting": "[4]", "result": "Amydolytic activity exhibited by the enzyme was same in presence and absence of plasminogen"},
      {"measurement": "Relative activity (%)", "setting": "[5]", "result": 27, "unit": "%"},
      {"measurement": "Relative activity (%)", "setting": "[6]", "result": 12, "unit": "%"},
      {"measurement": "proteolytic activity, % of the control", "setting": "[7]", "result": "varied from 5-30% of the control"},
      {"measurement": "Relative activity (%)", "setting": "[8]", "result": 32, "unit": "%"}
    ]}
  ]
}
